This is an account of results in US6482925.

Assay [1] concerns the target MHC class II molecules on Daudi B cells. Kind of assay: 51Cr Daudi cell adhesion; wild-type expression titrated by DNA quantity.
Assay [2] has the same target. Kind of assay: 51Cr Daudi cell adhesion to transfected Cos-7 cells; cpm relative to wild-type, background not subtracted.
For assay [3] the target is unchanged. The assay is described as follows: 51Cr Daudi cell adhesion to transfected Cos-7 cells.
Assay [4] shares this target. The assay is described as above. This is another data set of the same source.

Read-outs that look alike come from different tables or passages of the source. Where only a bound is given, the exact number is not on record here.

“LAG-3 deletion mutant (54/66), deletion of the tip of the external loop (from UniProt P18627 23-492) (receptor)” returned a reduction of bound cpm against wild-type LAG-3 at comparable expression in assay [1] of 40%. The molecule further registered an Adhesion (relative to wild-type LAG-3) in assay [2] of 0.08.

Take “LAG-3 deletion mutant (D2), deletion of domain D2 (from UniProt P18627 23-492) (receptor)”: the reduction of bound cpm against wild-type LAG-3 at comparable expression in assay [1] was 40%. Besides, the Adhesion (relative to wild-type LAG-3) in assay [2] was determined as 0.11.

B1: LAG-3 mutant R76E (receptor)
chain: LQPGAEVPVVWAQEGAPAQLPCSPTIPLQDLSLLRRAGVTWQHQPDSGPPAAAPGHPLAPGPHPAAPSSWGPRPREYTVLSVGPGGLRSGRLPLQPRVQLDERGRQRGDFSLWLRPARRADAGEYRAAVHLRDRALSCRLRLRLGQASMTASPPGSLRASDWVILNCSFSRPDRPASVHWFRNRGQGRVPVRESPHHHLAESFLFLPQVSPMDSGPWGCILTYRDGFNVSIMYNLTVLGLEPPTPLTVYAGAGSRVGLPCRLPAGVGTRSFLTAKWTPPGGGPDLLVTGDNGDFTLRLEDVSQAQAGTYTCHIHLQEQQLNATVTLAIITVTPKSFGSPGSLGKLLCEVTPVSGQERFVWSSLDTPSQRSFSGPWLEAQEAQLLSQPWQCQLYQGERLLGAAVYFTELSSPGAQRSGRAPGALPAGHLLLFLTLGVLSLLLLVTGAFGFHLWRRQWRPRRFSALEQGIHPRRLRAR
For B1, the fold increase of binding against wild-type LAG-3 in assay [3] was > 3 fold. The Adhesion (relative to wild-type LAG-3) in assay [2] was 2.95.

B2: LAG-3 mutant R75A (receptor)
chain: LQPGAEVPVVWAQEGAPAQLPCSPTIPLQDLSLLRRAGVTWQHQPDSGPPAAAPGHPLAPGPHPAAPSSWGPRPARYTVLSVGPGGLRSGRLPLQPRVQLDERGRQRGDFSLWLRPARRADAGEYRAAVHLRDRALSCRLRLRLGQASMTASPPGSLRASDWVILNCSFSRPDRPASVHWFRNRGQGRVPVRESPHHHLAESFLFLPQVSPMDSGPWGCILTYRDGFNVSIMYNLTVLGLEPPTPLTVYAGAGSRVGLPCRLPAGVGTRSFLTAKWTPPGGGPDLLVTGDNGDFTLRLEDVSQAQAGTYTCHIHLQEQQLNATVTLAIITVTPKSFGSPGSLGKLLCEVTPVSGQERFVWSSLDTPSQRSFSGPWLEAQEAQLLSQPWQCQLYQGERLLGAAVYFTELSSPGAQRSGRAPGALPAGHLLLFLTLGVLSLLLLVTGAFGFHLWRRQWRPRRFSALEQGIHPRRLRAR
As to B2, in assay [3], the fold increase of binding against wild-type LAG-3 is > 3 fold. In assay [2], this molecule yielded an Adhesion (relative to wild-type LAG-3) of 4.2.

B3: LAG-3 mutant R115A (receptor)
chain: LQPGAEVPVVWAQEGAPAQLPCSPTIPLQDLSLLRRAGVTWQHQPDSGPPAAAPGHPLAPGPHPAAPSSWGPRPRRYTVLSVGPGGLRSGRLPLQPRVQLDERGRQRGDFSLWLAPARRADAGEYRAAVHLRDRALSCRLRLRLGQASMTASPPGSLRASDWVILNCSFSRPDRPASVHWFRNRGQGRVPVRESPHHHLAESFLFLPQVSPMDSGPWGCILTYRDGFNVSIMYNLTVLGLEPPTPLTVYAGAGSRVGLPCRLPAGVGTRSFLTAKWTPPGGGPDLLVTGDNGDFTLRLEDVSQAQAGTYTCHIHLQEQQLNATVTLAIITVTPKSFGSPGSLGKLLCEVTPVSGQERFVWSSLDTPSQRSFSGPWLEAQEAQLLSQPWQCQLYQGERLLGAAVYFTELSSPGAQRSGRAPGALPAGHLLLFLTLGVLSLLLLVTGAFGFHLWRRQWRPRRFSALEQGIHPRRLRAR
B3 came in with a reduction of bound cpm against wild-type LAG-3 at comparable expression in assay [1] of 40%. The molecule also registered an Adhesion (relative to wild-type LAG-3) in assay [2] of 0.23.

B4: LAG-3 mutant R103A (receptor)
chain: LQPGAEVPVVWAQEGAPAQLPCSPTIPLQDLSLLRRAGVTWQHQPDSGPPAAAPGHPLAPGPHPAAPSSWGPRPRRYTVLSVGPGGLRSGRLPLQPRVQLDEAGRQRGDFSLWLRPARRADAGEYRAAVHLRDRALSCRLRLRLGQASMTASPPGSLRASDWVILNCSFSRPDRPASVHWFRNRGQGRVPVRESPHHHLAESFLFLPQVSPMDSGPWGCILTYRDGFNVSIMYNLTVLGLEPPTPLTVYAGAGSRVGLPCRLPAGVGTRSFLTAKWTPPGGGPDLLVTGDNGDFTLRLEDVSQAQAGTYTCHIHLQEQQLNATVTLAIITVTPKSFGSPGSLGKLLCEVTPVSGQERFVWSSLDTPSQRSFSGPWLEAQEAQLLSQPWQCQLYQGERLLGAAVYFTELSSPGAQRSGRAPGALPAGHLLLFLTLGVLSLLLLVTGAFGFHLWRRQWRPRRFSALEQGIHPRRLRAR
Take B4: the fold reduction of binding against wild-type LAG-3 in assay [3] was 2 fold. Besides, the Adhesion (relative to wild-type LAG-3) in assay [2] amounted to 0.49.

B5: LAG-3 mutant Y77F (receptor)
chain: LQPGAEVPVVWAQEGAPAQLPCSPTIPLQDLSLLRRAGVTWQHQPDSGPPAAAPGHPLAPGPHPAAPSSWGPRPRRFTVLSVGPGGLRSGRLPLQPRVQLDERGRQRGDFSLWLRPARRADAGEYRAAVHLRDRALSCRLRLRLGQASMTASPPGSLRASDWVILNCSFSRPDRPASVHWFRNRGQGRVPVRESPHHHLAESFLFLPQVSPMDSGPWGCILTYRDGFNVSIMYNLTVLGLEPPTPLTVYAGAGSRVGLPCRLPAGVGTRSFLTAKWTPPGGGPDLLVTGDNGDFTLRLEDVSQAQAGTYTCHIHLQEQQLNATVTLAIITVTPKSFGSPGSLGKLLCEVTPVSGQERFVWSSLDTPSQRSFSGPWLEAQEAQLLSQPWQCQLYQGERLLGAAVYFTELSSPGAQRSGRAPGALPAGHLLLFLTLGVLSLLLLVTGAFGFHLWRRQWRPRRFSALEQGIHPRRLRAR
B5: the reduction of bound cpm against wild-type LAG-3 at comparable expression in assay [1] is 40%. In assay [2], this molecule registered an Adhesion (relative to wild-type LAG-3) of 0.05.

B6: LAG-3 mutant H56A (receptor)
chain: LQPGAEVPVVWAQEGAPAQLPCSPTIPLQDLSLLRRAGVTWQHQPDSGPPAAAPGAPLAPGPHPAAPSSWGPRPRRYTVLSVGPGGLRSGRLPLQPRVQLDERGRQRGDFSLWLRPARRADAGEYRAAVHLRDRALSCRLRLRLGQASMTASPPGSLRASDWVILNCSFSRPDRPASVHWFRNRGQGRVPVRESPHHHLAESFLFLPQVSPMDSGPWGCILTYRDGFNVSIMYNLTVLGLEPPTPLTVYAGAGSRVGLPCRLPAGVGTRSFLTAKWTPPGGGPDLLVTGDNGDFTLRLEDVSQAQAGTYTCHIHLQEQQLNATVTLAIITVTPKSFGSPGSLGKLLCEVTPVSGQERFVWSSLDTPSQRSFSGPWLEAQEAQLLSQPWQCQLYQGERLLGAAVYFTELSSPGAQRSGRAPGALPAGHLLLFLTLGVLSLLLLVTGAFGFHLWRRQWRPRRFSALEQGIHPRRLRAR
On to B6, for which the fold reduction of binding against wild-type LAG-3 in assay [3] was 2 fold; in assay [4], > 2 fold. The reduction of bound cpm against wild-type LAG-3 at comparable expression in assay [1] was 40%. In assay [2], this molecule displayed an Adhesion (relative to wild-type LAG-3) of 0.45.

B7: LAG-3 mutant D30A (receptor)
chain: LQPGAEVPVVWAQEGAPAQLPCSPTIPLQALSLLRRAGVTWQHQPDSGPPAAAPGHPLAPGPHPAAPSSWGPRPRRYTVLSVGPGGLRSGRLPLQPRVQLDERGRQRGDFSLWLRPARRADAGEYRAAVHLRDRALSCRLRLRLGQASMTASPPGSLRASDWVILNCSFSRPDRPASVHWFRNRGQGRVPVRESPHHHLAESFLFLPQVSPMDSGPWGCILTYRDGFNVSIMYNLTVLGLEPPTPLTVYAGAGSRVGLPCRLPAGVGTRSFLTAKWTPPGGGPDLLVTGDNGDFTLRLEDVSQAQAGTYTCHIHLQEQQLNATVTLAIITVTPKSFGSPGSLGKLLCEVTPVSGQERFVWSSLDTPSQRSFSGPWLEAQEAQLLSQPWQCQLYQGERLLGAAVYFTELSSPGAQRSGRAPGALPAGHLLLFLTLGVLSLLLLVTGAFGFHLWRRQWRPRRFSALEQGIHPRRLRAR
Regarding B7, the fold reduction of binding against wild-type LAG-3 in assay [3] was 2 fold. Besides, the reduction of bound cpm against wild-type LAG-3 at comparable expression in assay [1] was 40%. The same molecule had an Adhesion (relative to wild-type LAG-3) in assay [2] of 0.41.

B8: LAG-3 mutant R73E (receptor)
chain: LQPGAEVPVVWAQEGAPAQLPCSPTIPLQDLSLLRRAGVTWQHQPDSGPPAAAPGHPLAPGPHPAAPSSWGPEPRRYTVLSVGPGGLRSGRLPLQPRVQLDERGRQRGDFSLWLRPARRADAGEYRAAVHLRDRALSCRLRLRLGQASMTASPPGSLRASDWVILNCSFSRPDRPASVHWFRNRGQGRVPVRESPHHHLAESFLFLPQVSPMDSGPWGCILTYRDGFNVSIMYNLTVLGLEPPTPLTVYAGAGSRVGLPCRLPAGVGTRSFLTAKWTPPGGGPDLLVTGDNGDFTLRLEDVSQAQAGTYTCHIHLQEQQLNATVTLAIITVTPKSFGSPGSLGKLLCEVTPVSGQERFVWSSLDTPSQRSFSGPWLEAQEAQLLSQPWQCQLYQGERLLGAAVYFTELSSPGAQRSGRAPGALPAGHLLLFLTLGVLSLLLLVTGAFGFHLWRRQWRPRRFSALEQGIHPRRLRAR
For B8, the fold increase of binding against wild-type LAG-3 in assay [3] was > 3 fold. This molecule returned an Adhesion (relative to wild-type LAG-3) in assay [2] of 3.25.
